Assay results reported in article PMC7595419.

Target: SicA-His6 (Salmonella enterica serovar Typhimurium) (UniProt P69066)
Assay: EMSA

Chain of SicA-His6 (Salmonella enterica serovar Typhimurium) (P69066 whole entry): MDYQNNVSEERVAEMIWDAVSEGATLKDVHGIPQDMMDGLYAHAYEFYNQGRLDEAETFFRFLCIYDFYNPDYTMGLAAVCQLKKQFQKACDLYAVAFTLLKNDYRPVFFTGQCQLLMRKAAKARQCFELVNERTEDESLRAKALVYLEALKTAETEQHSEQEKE

## ATAGGATCCCGTTGTATAAGGTTTTTTGTAGGCTTTTAAAAGCCTCCTGGGTTTTTAGTGAAGCTGAGTGATAGAAGCTCTGTATTTGCATAGCGTTTTTAATATTCCTGAATAGGGGAGTGGGAACATTCAACAGGGTTAACAACCCTTTAAAAGGATGTGACTTTTATGCACCAGGAACTTTAAAAAAATGTCCTTTTTAATGAGGAAACGCTTCTGATCAGGCGGGGAGGCATCCTGACGTCCATACGTAGTGGCGATCATGGGGGAGATCGGTACATCAAATGTCTAGATAT (double strand) [sopB regulatory region (-200 to +79)]
  binding: no binding
